{
  "source": "paper PMC8902617",
  "target": "filamentous actin (rabbit skeletal muscle actin) (UniProt P68135)",
  "test": "high-speed actin cosedimentation",
  "conditions": "F-actin 0-25 µM; parent: 93.30 ± 3.05",
  "data": [
    {"substance": "ASAP1 BAR-PH (residues 1-431), His6-tagged, wild type (from UniProt Q9QWY8) K153A; K156A; K159A", "values": [
      {"measurement": "other: % max (maximal binding, % protein in the pellet)", "value": 88.6, "unit": "%"}
    ]}
  ]
}
